Experiment: label from the status in PepcDB records

MGVLRPAAPITGTPNTRLTPVRRRLPTAEAKPTPRFNTPTNKLPEQMSSESPRNPLLDTWTETSSHMFNSVVAANRAAFAAFGVQQEEENGVTPAERIEPDEDLPEWHVSISEEHPGRLGVGDHVDFTKTISEHDVQQFAAASGDTNPLHLDDEFAEQTRFRGRIAHGTLVGSLISAALARLPGLTIYLSQDLEFHNPVRIGDRLTAECEIVEDLGDEQYRLTTRVLADDEVVIDGEAVVLIDDLPE
protein production: failed

MVTKEQVVEALEGIVDPFLHKTLKETSAIKEVTVKPEKEHVSVKIAIVKTGTAEQMQLQSGIVKLVKELGAATVGLRFAEFTEEELAQFAPEQEEEQSESLLSPNSKTTFLAVASGKGGVGKSTVSVNLAVALARLGKKVGIIDADIYGFSVPDMMGIEKRPIVRGDKIIPVERLGVKVISMGFFVEDNAPVIWRGPMLGKMLNHFFTEVEWGDLDYLVLDLPPGTGDVALDVHSMLPSCKEIIVTTPHPTAAFVAARAGAMALRTEHSILGVVENMAYFESKVTGEKEYVFGKGGGDKLATELQTNVLGRIPLQQPDWNKEDFAPSVYEDTHTTGIIYSKIAETVIDKTAVTQKLEHHHHHH
protein production: not failed

MYLLDTTSTAAISIYALLLTAYRSMQVLYARPIDGPAVAAEPVETRPLPAVDVIVPSFNEDPGILSACLASIADQDYPGELRVYVVDDGSRNREAIVRVRAFYSRDPRFSFILLPENVGKRKAQIAAIGQSSGDLVLNVDSDSTIAFDVVSKLASKMRDPEVGAVMGQLTASNSGDTWLTKLIDMEYWLACNEERAAQSRFGAVMCCCGPCAMYRRSALASLLDQYETQLFRGKPSDFGEDRHLTILMLKAGFRTEYVPDAIVATVVPDTLKPYLRQQLRWARSTFRDTFLALPLLRGLSPFLAFDAVGQNIGQLLLALSVVTGLAHLIMTATVPWWTILIIACMTIIRCSVVALHARQLRFLGFVLHTPINLFLILPLKAYALCTLSNSDWLSRYSAPEVPVSGGKQTPIQTSGRVTPDCTCSGE
protein production: failed

MDRMWSPWRSAYVSEANDREPTDDESIFTALLREERDEENLILWRGEHVFVIMNRHPYNSGHLLILPYREVTQYDALNAPEQQALTAALDRCMGWLREAVSPDGFNVGMNLGRAAGAGIPDHLHAHVVPRWDGDTNFMATTANTKVLPEDLQTTYGKLRAAMAPDARDTTKPAAQKPSE
protein production: failed

MVKWYKTYLEVYGKSFDEISDDSIRKVKRQLKERQNDSPLVSVVLIAHNEERHLISCIWSLSENHCHFPIEIIAVNNNSTDKTEEILKSLGVTYYNETKKGPGYARQCGLDHAKGKYHICIDADTLYPPHYIETHVKYLMNPKVACTFSLWSFMVDERHSRFGLWCYEGLRDIYLRLQAIQRPELCVRGMAFSFNTEIGRRFGFRTDIIRGEDGSLALAMKPYGKIVFITSRKARVLTSNGTLNSEGSLIDNIWIRVIKALKEITGLFIKKTAYKDKDSNLIKLEHHHHHH
protein production: failed

MMTKAFFNKLPFEVFRRYVRTGKSIPQRSPRTRKSLLVGGTIASAVVLYNFNDTFHDSVKHTALTTKRIAVVTQATTRCFYHYKRALNKSYENKKEREVALNKCHKMCALITLHALRSNGGIYIKLGQHIGAMTYLLPKEWTDTMIPLQDHCPESTYEEIDELFKEDLGTSIEDMFLEFNKTPIGVASLAQVHVAKLKNSDGKGSSVAVKCQHPSLKEFIPLDVMLTRTVFELLDVFFPDYPLTWLGDELQSSIYVELNFTKEAENAEKTRHYFSKFKKQTALKIPKVIESHKRILIAEYVGGKRLDDLEYIDSHGISRSEVSSCLSHIFNNMIFTPNVGIHCDPHGGNLAIRSVKPAKDNGYHNFEIVLFDHGLYRYPSTRTRRLYAKFWLSLLFDKDQTKMKKYAKGFANITDEQFPLLAAAITGRSIDAALNYDISTSRTQEEMDVMANGILEGTLLSDLMSILSRIPRVVLLILKTNDLTRHLDECLQNPLGPERTFLIMTQYCAKTVYDEKVERINSEYARWSIKWMWENLTNWIVYERRINQLYFYDFVLWWKKFIPKTWLSS
protein production: failed

MSEVILDIMNNELVSSLILRELIQYRRRFTHSTKSVSEEESQVTQVQLPRIRTFVDEGRRVELILPAFPVKSPSPYKVLGRMPDMAERLSLIFLNSLCQRIQLYYPPGAHIRICSDGHVFGDLIGTSDETINTYQDEIENLLHELGAVHLSVFNLKDVENMAALTADYGHLRQRLVEDYAESAEEIKEQLMQSEEGLQLYRSITRFLYEDSLRPDYTGSNAALQKDAKKRACGVIQRSWAWGNLLAENFPDAIRLSIHPQPADSLKLGIHMMPTKDDWLTPWHGVAANVNGQFVLMKNTDAQQLAGEVVEIRGTPSHYLVKQSDVA
protein production: failed

MKINWAENLRQNVHQLAESLGNLFVESFHYLALFAIGAVTAWAAVMEFLQMIEVGHIKIDDILLLFIYLELGAMVGIYFKTNHMPVRFLIYVAITALTRLLISNVSHHNPPDLGIIYLCGGILLLAFAILVVRYASSQFPSVKIEHPQRKIGAGSGEHPEVEKGEL
protein production: failed

MNSHMLVSSEIDIGLNKSNIERPPGSKKRTKHLPCEVPLAESADRILEPQDYLNFTRFSLGFVETETYDNPRFGGHQTLSERERSYSAVNQTIHCGFVKGTGFDLSEKDRAYMKNCVVSVSSCIFGSSDFLRRPATKKISEFSKRNVCFVMFVDEQTLSKLASEGHVPDKQGFVGLWKTVVVSNLPYNDMRKTGKVPKFLSHRLFPSSRYSIWLDSKMRLTTDPMLIIDFFLWRTKSEFAISNHYDRHCVWDEVLQNKRLNKYNHSAIDEQFMFYRSDGLKKFDPSDPNSPLPSYVPEGSFIVRAHTPMSNLFTCLWFNEVDRFTSRDQLSFAYTYLKLQRLNSDRPLRLNMFKDCERRALTKLFHHRVDSSPPSPPT
protein production: not failed

MPTNQDLQLAAHLRSQVTTLTRRLRREAQADPVQFSQLVVLGAIDRLGGDVTPSELAAAERMRSSNLAALLRELERGGLIVRHADPQDGRRTRVSLSSEGRRNLYGNRAKREEWLVRAMHACLDESERALLAAAGPLLTRLAQFEEP
protein production: not failed

MQDNNARFPTIAKVLILRQFLWGAAFYGAFVLLTKFFLDDLNYSEADTIMMMGAFGAVGPVFSAVGGFLADKFIGAFRAVYIGYATYLAGFLLLGIGASQLNVPMSILAIALIGFARGLSATCPTVLFGNSYSETNREAFQQGLTVNYSINNLGSFSAKYLFPFLIAYLAYQGVFFVSAILMALNLLMFYKFRKELVSVGNDLDKTPLPLKTWVMFFAGSAAMLGLIFWIFSNLETGKYILYTLGFGAIGYFIYEITQATRAYQYKMVAVLITVCILIVFYFFYGQMFTSMNMYAINLMDDTLLGFIPIHPESNMAFNPLWCFVLGGPMIQLYAWLDRKGYSPTIPTKIAGAFMLSTIAFGLLGLSAGSIGENGKISADWILLVHFFQSGAELIVGALGAGFIFEMVPRYLAAFSIGLRAVAISLSGILAAVIATKIALPKDIVFTPEVVETVYTSYFYMLAQVAAFMAILTLGLSKVIQKLIARGEALEAEEKVDTTMRSNIG
protein production: failed

MPRITQEISYNCDYGDNTFNLAIDIGGTLAKVVFSPIHSNRLMFYTIETEKIDKFMELLHSIIKEHNNGCYRMTHIIATGGGAFKFYDLLYENFPQIKGISRFEEMEGLIHGLDFFIHEIPDEVFTYNDQDGERIIPTSSGTMDSKAIYPYLLVNIGSGVSILKVTEPNNFSRVGGSSLGGGTLWGLLSLITGAQTYDQMLDWAQEGDNSSVDMLVGDIYGTDYNKIGLKSSAIASSFGKVFQNRMTSNKSLENNENKLYSSHESIEKNNGQMFKNPDICKSLLFAISNNIGQIAYLQAKINNIQNIYFGGSYTRGHLTTMNTLSYAINFWSQGSKQAFFLKHEGYLGAMGAFLSASRHSSTKKTST
protein production: failed

MKFSKFGQKFTQPTGISQLMDDLGDALKSDQPVNMLGGGNPAKIDAVNELFLETYKALGNDNDTGKANSSAIISMANYSNPQGDSAFIDALVGFFNRHYDWNLTSENIALTNGSQNAFFYLFNLFGGAFVNEHSQDKESKSVDKSILLPLTPEYIGYSDVHVEGQHFAAVLPHIDEVTHDGEEGFFKYRVDFEALENLPALKEGRIGAICCSRPTNPTGNVLTDEEMAHLAEIAKRYDIPLIIDNAYGMPFPNIIYSDAHLNWDNNTILCFSLSKIGLPGMRTGIIVADAKVIEAVSAMNAVVNLAPTRFGAAIATPLVANDRIKQLSDNEIKPFYQKQATLAVKLLKQALGDYPLMIHKPEGAIFLWLWFKDLPISTLDLYERLKAKGTLIVPSEYFFPGVDVSDYQHAHECIRMSIAADEQTLIDGIKVIGEVVRELYDNK
protein production: not failed

METWITSIMADFGYIGIFLLIMIENLFPPIPSEIILTFGGFMTTVSSLNVVMVIIVATLGSVVGAILLYKVASYFGKERLTHIVLKYGRVLRLKESDIERAESFFLKYGSWAVFLCRMIPLIRSLISIPAGMTKMKMSRFLILTTAGSLLWNTVLIGLGALLGESWGEIVVFMDSFSTVIYSIIAVITLLGLGFFFRARFKKTLDEE
protein production: failed

MIITLFVMVSGNKVKYEGSGKSGLWMSNLEKSDKTSIGPNYFLNLYWQGSKKEEKWTVVERITLYVDGEKYQDDNVDEYDLSEYTGDEMPGGGRMEDHISTFDYMPEDEVIGHDVLVKVEWRTGQKKQTEAIKLHKKPWYKKLEHHHHHH
protein production: failed

MSIIFILKMSKQSEQILEEQLLIQLHKLGYEKVILPNEDALLLNLKKQLEKHNKITFSKAEFDKVLNIVNKGSVFEKAKILRQRQHIIRDNGDNLYFEFLNTDYWCQNEYQVTNQLSQEGRYLNRYDVTLLINGLPLVQIELKRRGLELKEAFNQIDRYRKHSFGSGHGLYHFVQLFVISNGVNTKYFGNFGIHKQEYLQTFHWTDENNKPLNNILNGFTDTFLEPCHISKMICKYIVLHETEKKLMVLRPYQYFAVENIIKKVKENEVLNGYDINKNGYIWHTTGSGKTLTSFKASQILSNIPAIKKVVFVVDRKDLDYQTNQEYEKFSQGCVSSVGNTDDLIKKFNDPAERIIVTTIQKLNNAISGKNIYKMKAMQDQRMVFIFDECHRSQFGDTHKNIVSYFTNIQLFGFTGTPILVENANGEKTTASLFGKCLHKYVITDAIRDENVLRFSVEYIQTFKQKEHIVDLKIEQINETEVFEAPERKEAIVNYILQHHKQKTQQGKYCAMMCVQDIDSVIQYYEILKAMKKAGEHQLKIITIFSFAQNEDPLDYEIKTELSVVEEPKALYGLPPHRRELLDAYIGDFNQLYDTAHSTKDSQSFYTYYNDVAKKAKNNEMDILLVANMFLTGFDSKYLNTLYVDKNLQYHGLIQAFSRTNRTHDKNKTQGNIVCFRNLKDKTDEAITLFSNREAIDEVIVAPYETYVEEFNKAVNQLKAIVPNVDSVDDLYTEEDQLKFILAFRNMIRLHKKMSHYTEFTWDDLEIEEQSFLDYSSKYQDLKDSIVHKSDKEKTSILDDIDFELELIKKDTINVSYIVQLLFKLKVKKGKKDKEEVEKEIFNLLNTEVSLRSKRELIEKFIKENMSKIVEAEDIVDEFTRFWNEEQQKAFDELVQDENLSAERTQHLIEGYLFSEQEPLRDEILKLRNEGRPSALQAKDISNRILQRIKDFVNTFINGMNIAA
protein production: failed
